Publication PMC11187563, “The importance of tyrosines in multimers of cyclic RGD nonapeptides: towards αvβ6-integrin targeted radiotherapeutics” (RSC Medicinal Chemistry, 2024)
Read-outs that look alike come from different tables or passages of the source.

How the values were obtained:
[1] = Ex vivo biodistribution of 177Lu-labeled peptide tetramers in H2009 xenografted SCID mice; conditions: CB17 SCID, mouse, iv, total radioactivity, H2009 bearing SCID mice; for tissue uptake at 72 h / tissue to tissue ratio at 72 h: 42 pmol, 3 d p.i.; for tissue uptake at 1.5 h / tissue to tissue ratio at 1.5 h: 139 pmol, 90 min p.i.
Method: (§1) The biodistribution of the ^177Lu-labeled peptide conjugates was investigated in severe combined immunodeficiency (SCID) mice bearing subcutaneous xenografts of the αvβ6-integrin expressing human lung adenocarcinoma cell line H2009 on their right shoulders. Two representative time points after i.v. administration (p.i.) were evaluated.
(§2) Analytical HPLC was performed on a Shimadzu (Kyoto, Japan) Prominence HPLC system equipped with either a Dr. Maisch ReproSil Pur C18 AQ 150 × 4.6 mm, 5 μm, 120 Å (AC1) or a Phenomenex Kinetex C18 150 × 4.6 mm 5 μm column (AC2). Semipreparative HPLC was performed on a Shimadzu HPLC system equipped with either a Dr. Maisch ReproSil Pur C18 AQ 250 × 10 mm, 5 μm, 120 Å column with 5 mL min^−1 flow (PC1) or a Dr. Maisch ReproSil Pur C18 150 × 30 mm, 5 μm, 120 Å column with 20 mL min^−1 flow (PC2). Solvents for both systems were water (A) and acetonitrile (B) each supplemented with 0.1% (vol) trifluoroacetic acid (TFA). ESI-MS spectra (positive mode) were recorded on a Shimadzu LC-MS 2020 single quadrupol mass spectrometer. Solvents for MS applications were water (A) and acetonitrile (B) each supplemented with 0.1% (vol) formic acid. The other experimental procedures (determination of log D7.4, cultivation of H2009 human lung adenocarcinoma cells, generation of tumor xenografts in CB17 SCID mice, and biodistribution) were performed as described before.[28] All animal experiments have been carried out according to applicable law and institutional guidelines of Technical University of Munich, and were approved by the responsible local authority (Regierung von Oberbayern). The H2009 cells were regularly authenticated and tested for mycoplasma contamination. DOTPI-tetraazide,[43]FF (previously termed AvB6),[29]FY,[34] and YY (also referred to as Tyr2-alkyne)[36] were synthesized as described previously.

[2] = test system: αvβ6-integrin expressing human lung adenocarcinoma cell line H2009 xenografts; assay: as above; conditions: H2009 bearing SCID mice
Method: as §1, §2

[3] = H2009 tumor, read-out: Tumor H2009 %IA/g
[4] = adrenals, read-out: Adrenals %IA/g
[5] = heart (myocard), read-out: Heart (myocard) %IA/g
[6] = kidneys, read-out: Kidneys %IA/g
[7] = large intestine (empty), read-out: Large intestine (empty) %IA/g
[8] = pancreas, read-out: Pancreas %IA/g
[9] = small intestine (empty), read-out: Small intestine (empty) %IA/g
[10] = stomach (empty), read-out: Stomach (empty) %IA/g
[11] = tumor/blood, read-out: tumor/organ ratio, Blood
[12] = tumor/heart (myocard), read-out: tumor/organ ratio, Heart (myocard)
[13] = tumor/liver, read-out: tumor/organ ratio, Liver
[14] = tumor/lung, read-out: tumor/organ ratio, Lung
[15] = tumor/pancreas, read-out: tumor/organ ratio, Pancreas
[16] = tumor/spleen, read-out: tumor/organ ratio, Spleen

CC(C)C[C@@H]1NC(=O)[C@H](CC(=O)O)NC(=O)CNC(=O)[C@H](CCCNC(=N)N)NC(=O)[C@H](Cc2ccccc2)NC(=O)[C@H](CCCCNC(=O)CCc2cn(CCCNC(=O)CCP(=O)(O)CN3CCN(CP(=O)(O)CCC(=O)NCCCn4cc(CCC(=O)NCCCC[C@H]5C(=O)N[C@@H](Cc6ccccc6)C(=O)N[C@@H](CCCNC(=N)N)C(=O)NCC(=O)N[C@@H](CC(=O)O)C(=O)N[C@@H](CC(C)C)C(=O)N[C@@H](C)C(=O)N[C@@H](Cc6ccc(O)cc6)C(=O)N6CCC[C@@H]6C(=O)N5C)nn4)CCN(CP(=O)(O)CCC(=O)NCCCn4cc(CCC(=O)NCCCC[C@H]5C(=O)N[C@@H](Cc6ccccc6)C(=O)N[C@@H](CCCNC(=N)N)C(=O)NCC(=O)N[C@@H](CC(=O)O)C(=O)N[C@@H](CC(C)C)C(=O)N[C@@H](C)C(=O)N[C@@H](Cc6ccc(O)cc6)C(=O)N6CCC[C@@H]6C(=O)N5C)nn4)CCN(CP(=O)(O)CCC(=O)NCCCn4cc(CCC(=O)NCCCC[C@H]5C(=O)N[C@@H](Cc6ccccc6)C(=O)N[C@@H](CCCNC(=N)N)C(=O)NCC(=O)N[C@@H](CC(=O)O)C(=O)N[C@@H](CC(C)C)C(=O)N[C@@H](C)C(=O)N[C@@H](Cc6ccc(O)cc6)C(=O)N6CCC[C@@H]6C(=O)N5C)nn4)CC3)nn2)N(C)C(=O)[C@H]2CCCN2C(=O)[C@H](Cc2ccccc2)NC(=O)[C@H](C)NC1=O [Compound 177Lu-Y3, metal not drawn]
tissue uptake at 72 h [1, 3]: 2.03 %ID/g
tissue uptake at 1.5 h [1, 3]: 3.7 %ID/g
tissue uptake at 72 h [1, 4]: 0.27 %ID/g
tissue uptake at 1.5 h [1, 4]: 1.04 %ID/g
tissue uptake at 72 h ([1]; blood, read-out: Blood %IA/g): 0.02 %ID/g
tissue uptake at 1.5 h ([1]; blood, read-out: Blood %IA/g): 1.11 %ID/g
tissue uptake at 72 h ([1]; bone, read-out: Bone %IA/g): 0.35 %ID/g
tissue uptake at 1.5 h ([1]; bone, read-out: Bone %IA/g): 1.51 %ID/g
tissue uptake at 72 h [1, 5]: 0.22 %ID/g
tissue uptake at 1.5 h [1, 5]: 0.65 %ID/g
tissue uptake at 72 h [1, 6]: 250 %ID/g
tissue uptake at 1.5 h [1, 6]: 141 %ID/g
tissue uptake at 72 h [1, 7]: 1.34 %ID/g
tissue uptake at 1.5 h [1, 7]: 3.43 %ID/g
tissue uptake at 72 h ([1]; liver, read-out: Liver %IA/g): 1.17 %ID/g
tissue uptake at 1.5 h ([1]; liver, read-out: Liver %IA/g): 7.59 %ID/g
tissue uptake at 72 h ([1]; lung, read-out: Lung %IA/g): 1.22 %ID/g
tissue uptake at 1.5 h ([1]; lung, read-out: Lung %IA/g): 4.91 %ID/g
tissue uptake at 72 h ([1]; muscle, read-out: Muscle %IA/g): 0.47 %ID/g
tissue uptake at 1.5 h ([1]; muscle, read-out: Muscle %IA/g): 0.57 %ID/g
tissue uptake at 72 h [1, 8]: 0.25 %ID/g
tissue uptake at 1.5 h [1, 8]: 0.36 %ID/g
tissue uptake at 72 h [1, 9]: 0.37 %ID/g
tissue uptake at 1.5 h [1, 9]: 2.49 %ID/g
tissue uptake at 72 h ([1]; spleen, read-out: Spleen %IA/g): 1.36 %ID/g
tissue uptake at 1.5 h ([1]; spleen, read-out: Spleen %IA/g): 8.5 %ID/g
tissue uptake at 72 h [1, 10]: 4.76 %ID/g
tissue uptake at 1.5 h [1, 10]: 7.42 %ID/g
tissue to tissue ratio at 72 h ([1]; tumor / adrenals, read-out: tumor/organ ratio, Adrenals): 8.4
tissue to tissue ratio at 72 h ([1]; tumor / bone, read-out: tumor/organ ratio, Bone): 6.6
tissue to tissue ratio at 72 h ([1]; tumor / large intestine (empty), read-out: tumor/organ ratio, Large intestine (empty)): 2.3
tissue to tissue ratio at 72 h ([1]; tumor / muscle, read-out: tumor/organ ratio, Muscle): 5.3
tissue to tissue ratio at 72 h ([1]; tumor / small intestine (empty), read-out: tumor/organ ratio, Small intestine (empty)): 6.6
tissue to tissue ratio at 72 h ([1]; tumor / stomach (empty), read-out: tumor/organ ratio, Stomach (empty)): 0.5
tissue to tissue ratio at 1.5 h ([1]; tumor/adrenals, read-out: tumor/organ ratio, Adrenals): 3.9
tissue to tissue ratio at 72 h [1, 11]: 129
tissue to tissue ratio at 1.5 h [1, 11]: 3.4
tissue to tissue ratio at 1.5 h ([1]; tumor/bone, read-out: tumor/organ ratio, Bone): 2.5
tissue to tissue ratio at 72 h [1, 12]: 9.4
tissue to tissue ratio at 1.5 h [1, 12]: 5.8
tissue to tissue ratio at 1.5 h ([1]; tumor/large intestine (empty), read-out: tumor/organ ratio, Large intestine (empty)): 1.1
tissue to tissue ratio at 72 h [1, 13]: 1.9
tissue to tissue ratio at 1.5 h [1, 13]: 0.6
tissue to tissue ratio at 72 h [1, 14]: 1.7
tissue to tissue ratio at 1.5 h [1, 14]: 0.8
tissue to tissue ratio at 1.5 h ([1]; tumor/muscle, read-out: tumor/organ ratio, Muscle): 6.6
tissue to tissue ratio at 72 h [1, 15]: 10.6
tissue to tissue ratio at 1.5 h [1, 15]: 10.3
tissue to tissue ratio at 1.5 h ([1]; tumor/small intestine (empty), read-out: tumor/organ ratio, Small intestine (empty)): 1.5
tissue to tissue ratio at 72 h [1, 16]: 1.7
tissue to tissue ratio at 1.5 h [1, 16]: 0.5
tissue to tissue ratio at 1.5 h ([1]; tumor/stomach (empty), read-out: tumor/organ ratio, Stomach (empty)): 0.5
tumor/organ ratio, Kidneys ([2]; 90 min p.i.): 0.0
tumor/organ ratio, Kidneys ([2]; 3 d p.i.): 0.0
